Data on two substances can be found in paper doi:10.1101/2023.03.05.531154.

This assay has as its target Man5GlcNAc2-enriched CH505.M5.G458Y chimeric SOSIP gp140 Env trimer (HIV-1 (CH505 transmitted/founder virus) | HIV-1). The assay can be described thus: BLI. For orientation: BLI is a label-free optical method that tracks binding on a fibre tip over time.

In general, Kd refers to the free concentration of one partner at which half of the binding sites on the other are occupied at equilibrium, for simple one-to-one binding. A higher Kd goes with lower affinity. CH235 UCA IgG (antibody) returned a Kd of 4.5 nM.

Regarding CH235.12 Fab, the Kd was determined as 0.2 nM.
